Results as given in the Human Domainome abundance scans (Beltran et al. 2025).
± gives the uncertainty stated by the source.

B1: Homeobox protein cut-like 2, residues 895 to 963; numbered along this chain, O14529 (parent)
chain: EVDTLELTRQVKEKLAKNGICQRIFGEKVLGLSQGSVSDMLSRPKPWSKLTQKGREPFIRMQLWLSDQL
B2: Gamma-crystallin S, residues 96 to 176; numbered along this chain, P22914 (parent)
chain: IQIFEKGDFSGQMYETTEDCPSIMEQFHMREIHSCKVLEGVWIFYELPNYRGRQYLLDKKEYRKPIDWGAASPAVQSFRRI

Variants of: B1
Experiment: abundance fitness (aPCA) (normalised: wild type 0, dead -1); higher = more abundant; growth selection in yeast, the domain comes from the species named
Details: Homo sapiens

Variant	abundance fitness
L15S	-0.087 ± 0.053
L15I	-0.084 ± 0.047
L15M	0.053 ± 0.034
L15C	-0.123 ± 0.043
L15Y	-0.124 ± 0.052
L15W	-0.338 ± 0.034
L15A	0.038 ± 0.14
T4M	0.037 ± 0.03
T4R	-0.13 ± 0.035
T4W	-0.015 ± 0.039
T4H	-0.186 ± 0.051
T4S	-0.244 ± 0.034
T4C	-0.3 ± 0.073
T4G	-0.282 ± 0.035
T4V	-0.221 ± 0.031
T4P	-0.179 ± 0.039
T4F	-0.006 ± 0.063
T4K	-0.14 ± 0.035
T4E	-0.208 ± 0.041
T4D	-0.092 ± 0.066
T4Q	-0.254 ± 0.033
T4I	-0.126 ± 0.059
T4Y	-0.468 ± 0.068
T4L	-0.215 ± 0.027
T4A	-0.334 ± 0.034

Variant	abundance fitness
K12M	-0.237 ± 0.037
K12R	-0.187 ± 0.031
K12P	-0.244 ± 0.06
K12Y	-0.528 ± 0.058
K12G	-0.516 ± 0.037
K12N	-0.27 ± 0.086
K12S	-0.387 ± 0.032
K12E	-0.348 ± 0.074
K12W	-0.547 ± 0.031
K12T	-0.271 ± 0.045
K12F	-0.748 ± 0.045
K12Q	-0.358 ± 0.061
K12V	-0.366 ± 0.036
K12H	-0.354 ± 0.11
K12A	-0.372 ± 0.058
K12D	-0.025 ± 0.11
V2W	-0.137 ± 0.045
V2N	-0.136 ± 0.077
V2S	-0.019 ± 0.033
V2P	-0.244 ± 0.056
V2G	-0.001 ± 0.05
V2H	-0.201 ± 0.068
V2K	0.017 ± 0.053
V2E	-0.019 ± 0.047
V2F	-0.024 ± 0.048

Variant	abundance fitness
V2D	-0.301 ± 0.072
V2R	-0.041 ± 0.052
V2M	0.077 ± 0.038
V2Y	-0.152 ± 0.069
V2L	0.03 ± 0.027
A16C	-0.106 ± 0.077
A16L	-0.109 ± 0.028
A16K	0.001 ± 0.051
A16E	-0.1 ± 0.044
A16Q	-0.063 ± 0.044
A16P	-0.18 ± 0.038
A16D	-0.055 ± 0.067
A16N	-0.189 ± 0.15
A16F	-0.198 ± 0.058
A16Y	-0.234 ± 0.1
A16S	0.008 ± 0.038
A16T	-0.062 ± 0.04
A16I	-0.313 ± 0.079
A16M	-0.048 ± 0.037
A16R	0.036 ± 0.031
D3N	-0.001 ± 0.056
D3G	-0.253 ± 0.033
D3W	-0.221 ± 0.035
D3V	-0.42 ± 0.029
D3M	-0.163 ± 0.027

Variant	abundance fitness
D3Y	-0.358 ± 0.047
D3S	-0.084 ± 0.062
D3F	-0.139 ± 0.047
D3E	-0.277 ± 0.041
D3C	-0.279 ± 0.047
D3R	-0.316 ± 0.043
D3I	-0.541 ± 0.06
D3K	-0.203 ± 0.032
L5R	-0.039 ± 0.031
L5I	0.024 ± 0.045
L5Y	-0.033 ± 0.051
L5T	0.015 ± 0.032
L5S	-0.231 ± 0.03
L5M	0.122 ± 0.029
L5F	0.025 ± 0.042
L5P	-0.076 ± 0.036
L5C	-0.03 ± 0.052
L5W	-0.021 ± 0.033
L5V	0.015 ± 0.026
L5E	0.083 ± 0.031
L5A	0.028 ± 0.028
L5N	0.046 ± 0.058
L5K	0.102 ± 0.031
L5D	-0.146 ± 0.048
L5G	-0.061 ± 0.03

Variants of: B2
Experiment: as above
Details: Homo sapiens

Variant	abundance fitness
D19T	-0.059 ± 0.077
I1F	0.011 ± 0.091
I1G	-1.18 ± 0.16
I1K	-0.732 ± 0.35
K64D	-0.118 ± 0.39
M13C	-0.012 ± 0.076
F44T	-0.195 ± 0.069
F44V	0.009 ± 0.053
F44K	-0.929 ± 0.22
W68L	-0.044 ± 0.17
G11V	-0.208 ± 0.04
G11S	0.06 ± 0.035
G11N	-0.002 ± 0.14
K36D	-0.019 ± 0.083
Y50G	-0.421 ± 0.028
Y50P	-1.14 ± 0.11
V41P	-0.051 ± 0.1
E46L	-0.279 ± 0.052
E46C	-0.008 ± 0.19
M29L	-0.084 ± 0.055
M29N	0.226 ± 0.13
M29V	0.034 ± 0.052
S10P	-0.733 ± 0.097

Variant	abundance fitness
Q76W	-0.441 ± 0.39
H28C	0.031 ± 0.086
I3P	-1.2 ± 0.23
I3L	-0.02 ± 0.053
I3G	-0.716 ± 0.067
Y14F	-0.011 ± 0.083
K60A	-0.001 ± 0.17
K60D	-0.251 ± 0.49
P21N	-0.015 ± 0.12
N49M	-0.001 ± 0.04
G40R	-0.322 ± 0.049
R53V	-0.018 ± 0.038
E5Q	0.12 ± 0.092
H33M	0.027 ± 0.074
R80C	0.059 ± 0.36
F9R	-0.126 ± 0.037
F9Q	0.027 ± 0.071
Y62T	-0.174 ± 0.28
C20M	-0.008 ± 0.081
D8K	0.162 ± 0.085
F27N	-0.141 ± 0.14
Q2S	0.039 ± 0.075
L47Y	0.019 ± 0.15

Variant	abundance fitness
Y55K	-0.352 ± 0.29
I43H	-0.162 ± 0.36
S34E	-0.772 ± 0.097
T17C	0.027 ± 0.12
M24H	-0.099 ± 0.17
D67T	-0.262 ± 0.35
D67A	0.149 ± 0.2
G7W	-0.041 ± 0.049
I23M	-0.041 ± 0.17
Q12R	0.025 ± 0.047
Q12G	0.033 ± 0.032
I66C	0.131 ± 0.18
P65V	0.141 ± 0.083
A70E	-0.004 ± 0.093
A70T	-0.037 ± 0.2
K59A	0.012 ± 0.099
E18Y	-0.032 ± 0.13
E18W	0.014 ± 0.074
Q54Y	-0.144 ± 0.096
E61V	0.084 ± 0.23
G52V	-1.05 ± 0.12
